Measurements taken from patent EP1189630B1.
pKd: −log10 of the molar value.

Biological target: bovine hemoglobin (bovine) (UniProt P01966)
Assay: solid-phase ligand binding assay (ELISA), hemoglobin-coated wells; one value printed for rHA2, RgpA and Kgp

UniProt P01966, sequence (P01966 2-142 limits assumed, chain 1 of 2): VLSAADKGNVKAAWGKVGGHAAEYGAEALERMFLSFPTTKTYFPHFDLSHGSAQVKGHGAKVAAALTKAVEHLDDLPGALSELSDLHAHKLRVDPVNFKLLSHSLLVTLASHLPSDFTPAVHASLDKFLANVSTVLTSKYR
UniProt P01966, sequence (P02070 whole entry, chain 2 of 2, further chain): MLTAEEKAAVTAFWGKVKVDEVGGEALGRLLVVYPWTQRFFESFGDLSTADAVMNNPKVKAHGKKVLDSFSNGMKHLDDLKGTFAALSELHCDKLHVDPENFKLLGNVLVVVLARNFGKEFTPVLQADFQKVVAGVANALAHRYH

Work on “polydomain Arg-gingipain RgpA isolated from P. gingivalis (ATCC 33277) (from UniProt P28784 228-991) (enzyme)” yielded a pKd of 8.68.
